The record followed here is article PMC5881488 (The Journal of Cell Biology, 2018).

Changes are numbered by the printed parent chain. Names may count otherwise.

Sequences and labels used below:
T1: GST-Ana2, full length (Drosophila, UniProt Q9XZ31 1-420)
T1 sequence (looked up): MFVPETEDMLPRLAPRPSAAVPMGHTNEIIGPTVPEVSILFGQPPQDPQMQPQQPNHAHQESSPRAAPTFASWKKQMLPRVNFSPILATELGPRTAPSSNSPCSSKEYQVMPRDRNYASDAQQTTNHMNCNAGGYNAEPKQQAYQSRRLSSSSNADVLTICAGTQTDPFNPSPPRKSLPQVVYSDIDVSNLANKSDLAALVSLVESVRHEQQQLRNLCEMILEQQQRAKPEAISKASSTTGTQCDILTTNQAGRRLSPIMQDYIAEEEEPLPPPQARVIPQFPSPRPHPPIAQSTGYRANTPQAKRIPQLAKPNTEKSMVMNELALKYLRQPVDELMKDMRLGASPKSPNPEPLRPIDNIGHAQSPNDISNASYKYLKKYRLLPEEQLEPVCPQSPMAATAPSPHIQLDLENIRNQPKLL

B1: His6-Ana2 CT (aa 318–420), wild type (domain or fragment, Drosophila, UniProt Q9XZ31 318-420, looked up)
chain: SMVMNELALKYLRQPVDELMKDMRLGASPKSPNPEPLRPIDNIGHAQSPNDISNASYKYLKKYRLLPEEQLEPVCPQSPMAATAPSPHIQLDLENIRNQPKLL
B2: MBP-Ana2 NT (aa 1–317), wild type (domain or fragment, Drosophila, UniProt Q9XZ31 1-317, looked up)
chain: MFVPETEDMLPRLAPRPSAAVPMGHTNEIIGPTVPEVSILFGQPPQDPQMQPQQPNHAHQESSPRAAPTFASWKKQMLPRVNFSPILATELGPRTAPSSNSPCSSKEYQVMPRDRNYASDAQQTTNHMNCNAGGYNAEPKQQAYQSRRLSSSSNADVLTICAGTQTDPFNPSPPRKSLPQVVYSDIDVSNLANKSDLAALVSLVESVRHEQQQLRNLCEMILEQQQRAKPEAISKASSTTGTQCDILTTNQAGRRLSPIMQDYIAEEEEPLPPPQARVIPQFPSPRPHPPIAQSTGYRANTPQAKRIPQLAKPNTEK
B3: MBP-Ana2 NT-2PM (aa 1–317, T33E/S38D) (domain or fragment, Drosophila, UniProt Q9XZ31 1-317, looked up)
chain: B2 chain with T33E, S38D
B4: V5-Ana2 (anastral spindle 2), full length, wild type (natural protein)
chain: T1 sequence (looked up)
B5: Plk4 1–317-FLAG-His6 (domain or fragment, Drosophila, UniProt O97143 1-317, looked up)
chain: MLSNRAFGETIEDYEVQHLLGKGGFATVYKARCLHTHQDVAIKMIDKKLIQGTGLTNRVRQEVEIHSRLKHPSVLQLYTFFQDANYVYLVLELAHNGELHRYMNHIARPFTETEAASILKQVVAGLLYLHSHNIMHRDISLSNLLLSREMHVKIADFGLATQLKRPDERHMTMCGTPNYISPEVVSRTSHGLPADVWSVGCMLYTLLVGRPPFETDAVQSTLNKVVMSEYIMPAHLSYEAQDLINKLLKKLPHERITLEAVLCHPFMLKCSNGGHSAPGALNVFSQSMESGDSGIITFASSDSRNSQQIRSVENSGP

The target of data set [1] is MBP-Ana2 NT-2PM (aa 1–317, T33E/S38D) (Drosophila) (UniProt Q9XZ31). Nature of the data set: pull-down.
In data set [2] the target is B3. In words: pull-down.
The data set “pull-down” concerns the molecule itself. In words: pull-down.
Data set [3] addresses Plk4-GFP lacking PB3 (Drosophila). In words: co-IP.
Data set [4] has as its target Plk4-GFP lacking the putative CC and PB3 (Drosophila). Nature of the data set: co-IP.
Another data set concerns the target T1, GST-Ana2, full length. In words: pull-down.

Molecule “His6-Ana2 CT-3PM (aa 318–420, S318/S370/S373 phosphomimetic) (from UniProt Q9XZ31 318-420) (domain or fragment)” returned a fold of His6-Ana2 CT pulled down relative to WT NT with WT CT in data set [1] of 3.5 fold.

For B1, the binding result in data set [2] is listed as “binds”.

For B2, the binding result in the data set “pull-down” was “binds”.

For the molecule B3, the binding result in the data set “pull-down” is “binds”.

In the case of B4, the fold decrease of co-precipitated Ana2 on deletion of PB3 in data set [3] was found to be 2 fold. The same molecule displayed a further fold decrease of co-precipitated Ana2 relative to deletion of PB3 alone in data set [4] of 2 fold.

As for B5, the binding result with GST-Ana2, full length is reported as “binds”.
